Measured values reported in patent publication US20070122422A1, “Sodium-independent small neutral amino acid transporter transporting L- and D- amino acids” (Japan Science and Technology Corporation, priority 2000, published 2007).

How the values were obtained:
[1] = biological target: T1, asc-1 of mouse (co-expressed with 4F2hc of mouse) (Mus musculus, UniProt P63115); experiment: Incorporation of radiolabeled amino acids and analogs by oocytes co-expressing asc-1 and 4F2hc; format: cell-based; conditions: summary statement; asc-1 co-existing with 4F2hc
T1 construct: expressed in transfected cells; host or cells: Xenopus oocytes injected with cRNA
T1 sequence (P63115 1-530): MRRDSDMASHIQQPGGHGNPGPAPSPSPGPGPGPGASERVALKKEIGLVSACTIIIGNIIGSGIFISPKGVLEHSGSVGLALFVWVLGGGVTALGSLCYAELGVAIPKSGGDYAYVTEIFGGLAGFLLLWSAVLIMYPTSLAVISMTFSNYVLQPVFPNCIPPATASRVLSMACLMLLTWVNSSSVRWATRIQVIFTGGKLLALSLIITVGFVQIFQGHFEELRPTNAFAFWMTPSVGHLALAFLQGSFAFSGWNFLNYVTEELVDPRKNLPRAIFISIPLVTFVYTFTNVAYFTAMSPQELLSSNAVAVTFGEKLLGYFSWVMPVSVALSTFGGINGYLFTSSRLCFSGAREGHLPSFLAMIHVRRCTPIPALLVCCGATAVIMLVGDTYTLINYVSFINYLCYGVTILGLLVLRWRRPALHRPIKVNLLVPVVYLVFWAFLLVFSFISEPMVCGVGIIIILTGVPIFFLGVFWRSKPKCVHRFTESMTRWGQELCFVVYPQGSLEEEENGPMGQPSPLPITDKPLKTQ
T1 sequence (P10852 1-526 partner): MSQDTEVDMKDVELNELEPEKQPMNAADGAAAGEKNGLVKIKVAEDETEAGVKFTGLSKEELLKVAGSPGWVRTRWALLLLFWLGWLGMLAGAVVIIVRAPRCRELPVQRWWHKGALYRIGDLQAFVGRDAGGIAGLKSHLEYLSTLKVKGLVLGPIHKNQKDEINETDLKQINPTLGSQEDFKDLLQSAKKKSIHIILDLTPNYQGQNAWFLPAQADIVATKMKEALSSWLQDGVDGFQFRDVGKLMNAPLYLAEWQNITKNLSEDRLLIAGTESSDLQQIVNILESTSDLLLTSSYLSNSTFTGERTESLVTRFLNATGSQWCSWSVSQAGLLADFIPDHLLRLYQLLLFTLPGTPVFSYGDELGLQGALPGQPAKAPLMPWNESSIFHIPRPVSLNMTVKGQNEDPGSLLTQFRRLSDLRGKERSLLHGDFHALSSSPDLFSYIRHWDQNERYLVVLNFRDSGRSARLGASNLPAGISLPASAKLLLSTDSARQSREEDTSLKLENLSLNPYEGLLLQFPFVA
Description: Incorporation of alanine when asc-1 gene cRNA of mouse was solely expressed in oocytes of Xenopus and when asc-1 gene cRNA of mouse and 4F2hc gene cRNA of mouse were expressed in oocytes of Xenopus together was compared.
(§1) Into oocytes were injected 12 ng of asc-1 gene cRNA of mouse, 13 ng of 4F2hc gene cRNA of mouse or 12 ng asc-1 gene cRNA of mouse/13 ng of 4F2hc gene cRNA of mouse to express followed by incubating for 3 days. […] Thus, the oocytes were allowed to stand for 30 minutes in a Na^+-free uptake solution [100 mM choline chloride, 2 mM potassium chloride, 1.8 mM calcium chloride, 1 mM magnesium chloride, 5 mM HEPES; pH 7.4] containing ^14C-alanine (100 μM) as a substrate and the rate of the substrate incorporated into the cells was measured by way of counting the radioactivity incorporated thereinto.
In an experiment of incorporation of alanine by oocytes into which both asc-1 gene cRNA and 4F2hc gene cRNA of mouse were injected together, influence of the salt added to the medium was investigated.
The experiment of incorporation of alanine was carried out in accordance with the method mentioned in the above Example 2(1) using oocytes into which both asc-1 gene cRNA and 4F2hc gene cRNA of mouse were injected together. When the influence of sodium ion was checked however, a standard uptake solution (where 100 mM choline chloride was substituted with 100 mM sodium chloride) was used in place of the Na^+-free uptake solution as the uptake solution. When the influence of chlorine ion was checked, a gluconic acid uptake solution (where 100 mM sodium chloride was substituted with 100 mM sodium gluconate) was used in place of the standard uptake solution.
Incorporation by asc-1 was investigated using various amino acids and analogs thereof as substrates. Experiment for incorporation of various amino acids and analogs thereof was carried out according to the method mentioned in the above Example 2(1) using oocytes into which asc-1 gene cRNA of mouse and 4F2hc gene cRNA of mouse were injected together. With regard to the substrates however, various compounds labeled with radioactivity were used in place of ^14C-alanine.
Influence of pH was checked in an experiment for incorporation of alanine by oocytes into which both asc-1 gene cRNA and 4F2hc gene cRNA of mouse were injected together. With regard to an experiment for incorporation of alanine, the method according to that mentioned in the above Example 2 (1) was carried out using oocytes into which both asc-1 gene cRNA of mouse and 4F2hc gene cRNA of mouse were injected together.

[2] = biological target: T2, LAT1 of rat (co-expressed with 4F2hc of rat) (Rattus norvegicus, UniProt Q63016, Q506C); experiment: Release of injected 14C-leucine from oocytes co-expressing LAT1 and 4F2hc of rat; format: cell-based; conditions: leucine 100 μM added or not added outside the cells
T2 construct: expressed in transfected cells; host or cells: oocytes injected with cRNA (per Kanai et al., J. Biol. Chem. 273:23629)
Description: Further, ^14C-leucine was similarly injected into oocytes into which LAT1 gene cRNA and 4F2hc gene cRNA of rat were injected together (Kanai et al., J. Biol. Chem., volume 273, page 23629, […]), washed with an ice-cooled Na^+-free uptake solution containing no leucine and transferred to a Na^+-free uptake solution to which leucine (100 μM) was added or not added at room temperature (18° C.-22° C.) whereupon the amount of ^14C-leucine released outside the cells was measured.
In the drawing, 0 is the case where, in the release of ^14C-leucine in the oocytes into which water is injected as a control instead of cRNA of rat LAT1 gene and cRNA of rat 4F2hc gene, a Na^+-free uptake solution to which no leucine is added is used; ● is the case where, in the release of ^14C-leucine in the oocytes into which water is injected as a control instead of cRNA of rat LAT1 gene and cRNA of rat 4F2hc gene, a Na^+-free uptake solution to which leucine is added is used; ● is the case where, in the release of ^14C-leucine in the oocytes into which cRNA of rat LAT1 gene and cRNA of rat 4F2hc gene are injected, a Na^+-free uptake solution to which no leucine is added is used; and ▪ is the case where, in the release of ^14C-leucine in the oocytes into which cRNA of rat LAT1 gene and cRNA of rat 4F2hc gene are injected, a Na^+-free uptake solution to which leucine is added is used.

[3] = biological target: T1, asc-1 of mouse (co-expressed with 4F2hc of mouse); experiment: Michaelis-Menten kinetic test of substrate incorporation by Xenopus oocytes co-expressing asc-1 and 4F2hc; format: cell-based; conditions: ratio to the Vmax value for alanine (defined as 1.00)
Description: as §1
A Michaelis-Menten kinetic test was carried out for a sodium-independent small neutral amino acid transporter asc-1 which transports L- and D-amino acids. By checking the changes in the rate of incorporation of alanine due to the difference in concentration of the alanine substrate, the Michaelis-Menten kinetic test of asc-1 was carried out.
An experiment for the incorporation of alanine was carried out according to the method mentioned in the above Example 2(1) using the oocytes into which both asc-1 gene cRNA of mouse and 4F2hc gene cRNA of mouse were injected.
With regard to amino acids other than alanine which were used as substrates, a Michaelis-Menten kinetic was carried out as well in the same manner whereupon Km values and Vmax values were calculated. Each Vmax value in Table 1 was shown in terms of the ratio when the Vmax value of alanine was defined as 1.00.

[4] = substrate: C[C@@H](O)[C@H](N)C(=O)O; experiment: cells, lysate or membranes; conditions: other: oocytes with mouse asc-1 and 4F2hc cRNA; Na+-free uptake solution; pH 7.4
[5] = substrate: C[C@@H](N)C(=O)O; experiment: cells, lysate or membranes; conditions: other: oocytes with mouse asc-1 and 4F2hc cRNA; Na+-free uptake solution; pH 7.4
[6] = substrate: NCCC(=O)O; experiment: cells, lysate or membranes; conditions: other: oocytes with mouse asc-1 and 4F2hc cRNA; Na+-free uptake solution; pH 7.4
[7] = substrate: NCC(=O)O; experiment: cells, lysate or membranes; conditions: other: oocytes with mouse asc-1 and 4F2hc cRNA; Na+-free uptake solution; pH 7.4
[8] = substrate: C[C@H](N)C(=O)O; experiment: cells, lysate or membranes; conditions: other: oocytes with mouse asc-1 and 4F2hc cRNA; Na+-free uptake solution; pH 7.4
[9] = substrate: CSCC[C@H](N)C(=O)O; experiment: cells, lysate or membranes; conditions: other: oocytes with mouse asc-1 and 4F2hc cRNA; Na+-free uptake solution; pH 7.4
[10] = substrate: N[C@@H](CS)C(=O)O; experiment: Michaelis-Menten kinetic test of substrate incorporation by Xenopus oocytes co-expressing asc-1 and 4F2hc; format: cell-based; conditions: other: oocytes with mouse asc-1 and 4F2hc cRNA; Na+-free uptake solution; pH 7.4
[11] = substrate: N[C@@H](Cc1ccccc1)C(=O)O; experiment: as above; format: cell-based; conditions: other: oocytes with mouse asc-1 and 4F2hc cRNA; Na+-free uptake solution; pH 7.4
[12] = substrate: CC(C)(N)C(=O)O; experiment: as above; format: cell-based; conditions: other: oocytes with mouse asc-1 and 4F2hc cRNA; Na+-free uptake solution; pH 7.4
[13] = substrate: CC(C)C[C@H](N)C(=O)O; experiment: as above; format: cell-based; conditions: other: oocytes with mouse asc-1 and 4F2hc cRNA; Na+-free uptake solution; pH 7.4
[14] = substrate: N[C@@H](CO)C(=O)O; experiment: as above; format: cell-based; conditions: other: oocytes with mouse asc-1 and 4F2hc cRNA; Na+-free uptake solution; pH 7.4
[15] = substrate: N[C@H](CO)C(=O)O; experiment: as above; format: cell-based; conditions: other: oocytes with mouse asc-1 and 4F2hc cRNA; Na+-free uptake solution; pH 7.4
[16] = substrate: N[C@@H](Cc1c[nH]cn1)C(=O)O; experiment: as above; format: cell-based; conditions: other: oocytes with mouse asc-1 and 4F2hc cRNA; Na+-free uptake solution; pH 7.4
[17] = substrate: CC[C@H](C)[C@H](N)C(=O)O; experiment: as above; format: cell-based; conditions: other: oocytes with mouse asc-1 and 4F2hc cRNA; Na+-free uptake solution; pH 7.4
[18] = substrate: CC(C)[C@H](N)C(=O)O; experiment: as above; format: cell-based; conditions: other: oocytes with mouse asc-1 and 4F2hc cRNA; Na+-free uptake solution; pH 7.4

T2 sequence (Q63016 whole entry Q506C): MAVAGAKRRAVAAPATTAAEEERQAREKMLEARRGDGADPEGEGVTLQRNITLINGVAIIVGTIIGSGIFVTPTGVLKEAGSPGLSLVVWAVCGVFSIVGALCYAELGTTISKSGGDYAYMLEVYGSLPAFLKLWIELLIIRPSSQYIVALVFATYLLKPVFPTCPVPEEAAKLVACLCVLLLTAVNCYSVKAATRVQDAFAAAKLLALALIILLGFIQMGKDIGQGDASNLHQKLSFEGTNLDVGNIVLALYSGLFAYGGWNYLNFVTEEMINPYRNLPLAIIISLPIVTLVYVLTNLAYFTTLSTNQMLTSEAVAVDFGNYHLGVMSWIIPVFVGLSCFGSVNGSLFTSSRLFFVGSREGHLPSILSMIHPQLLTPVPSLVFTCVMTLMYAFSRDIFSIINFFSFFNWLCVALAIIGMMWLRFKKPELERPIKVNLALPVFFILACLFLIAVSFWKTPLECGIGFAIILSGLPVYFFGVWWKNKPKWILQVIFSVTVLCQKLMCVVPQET
T2 sequence (Q794F9 whole entry partner): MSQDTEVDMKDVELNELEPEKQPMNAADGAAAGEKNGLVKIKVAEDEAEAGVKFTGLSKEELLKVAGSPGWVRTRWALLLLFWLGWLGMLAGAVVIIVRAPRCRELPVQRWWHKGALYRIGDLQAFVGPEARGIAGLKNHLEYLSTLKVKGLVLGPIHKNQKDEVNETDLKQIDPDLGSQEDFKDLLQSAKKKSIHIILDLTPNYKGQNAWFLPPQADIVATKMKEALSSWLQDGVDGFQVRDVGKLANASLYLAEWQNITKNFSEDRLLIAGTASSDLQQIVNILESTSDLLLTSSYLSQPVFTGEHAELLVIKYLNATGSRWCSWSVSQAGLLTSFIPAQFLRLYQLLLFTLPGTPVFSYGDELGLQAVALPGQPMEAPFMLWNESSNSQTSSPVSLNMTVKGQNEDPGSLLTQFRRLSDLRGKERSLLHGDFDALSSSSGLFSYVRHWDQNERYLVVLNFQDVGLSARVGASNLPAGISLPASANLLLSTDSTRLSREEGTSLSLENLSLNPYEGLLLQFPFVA

## CC(C)C[C@H](N)C(=O)O [L-Leucine]
[1]
  transport by asc-1 (affinity in words): lowly affinitive
[2]
  release of 14C-leucine: observed only when leucine was added
[3]
  Vmax: 0.58

B1: asc-1 of mouse (co-expressed with 4F2hc of mouse) (Mus musculus) (protein)
chain: T1 sequence (P63115 1-530)
notes: expressed in transfected cells; host or cells: Xenopus oocytes injected with cRNA
[4]
  Km: 19.3 µM
[5]
  Km: 100 µM
[6]
  Km: 281 µM
[7]
  Km: 7.8 µM
[8]
  Km: 23.0 ± 5.1 µM
[9]
  Km: 139 µM
[10]
  Km: 23.7 µM
[11]
  Km: 464 µM
[12]
  Km: 22.7 µM
[13]
  Km: 245 µM
[14]
  Km: 11.3 µM
[15]
  Km: 52.0 µM
[16]
  Km: 368 µM
[17]
  Km: 160 µM
[18]
  Km: 112 µM
